Key:
[1] = test system: HeLa cells; experiment: HeLa cell viability (CCK-8) in 3D h9e hydrogel; format: cell-based; conditions: 3-day treatment, various concentrations of camptothecin, in h9e hydrogel
Experimental: Cell culture and drug efficacy/diffusion tests: HeLa cells were grown in the hydrogel in 3D. Aliquots of HeLa cells solution were added into […] hydrogel with DMEM containing 10% FBS with a final peptide concentration of 0, 0.25, 0.5 and 1 wt %. 100 μl of cell mixture solution (3×10^4 cells per well) was seeded into a 96-well culture plate (Becton Dickinson Labware, Franklin Lakes, N.J.) and placed in an incubator (Nuair, Playmouth, Minn.) in a humidified 5% CO2 atmosphere at 37° C. for about 30 min. After complete hydrogelation, 10 μl of DMEM containing 0, 50 uM, 100 uM, or 200 uM camptothecin was added on top of the hydrogel to obtain camptothecin concentrations of 0 μM, 3.125 μM, 6.25 μM, and 12.5 μM, respectively, upon total diffusion in the hydrogel. Then, 50 ul of DMEM was carefully added to the top of the hydrogel to prevent drying during long-term incubation. All measurements were made at least in triplicate, and the plates were incubated for 3 days. A CCK-8 assay was used to determine cell viability after each treatment. 10 μL of CCK solution was added to each well. After 4 h of incubation, the absorbance at 450 nm was collected on a microplate reader (mQuant, Bio-Tek) and corrected by subtracting the background signal from a wall containing only 160 ul DMEM containing 10% FBS. […]

[2] = Instantaneous gelation time sweep of peptide sequences 1, 3 and 4; format: physicochemical; conditions: for final gel strength after 30 minute gelation time sweep: triggered with 100 mM CaCl2 solution (FIG. 12, 13)
Experimental: Similar to the methods used in U.S. 2013/0018004. Hydrogels were prepared with peptide 1, 3, and 4 alone, or mixture of peptide sequence 1 and 4 at 1:1 ratio. Hydrogels were triggered by calcium ions and BSA alone or co-trigger (calcium ions+BSA).

[3] = Gelation test of ECM ligand built-in or blended hydrogels; format: physicochemical; conditions: 0.5% peptide solution triggered with 0.5% BSA solution, 37° C., 30 min
Experimental: In this Example, an ECM ligand RGD built-in peptide (i.e., FLIVI-GSII-GPGGDGPGGDGRGD (SEQ ID NO:69)) was formulated into a hydrogel at 0.5% peptide solution triggered with 0.5% BSA solution. Gelation test was performed at 37° C. for 30 min. Gel strength was about 500 Pa, similar as the regular h9e hydrogel (FIG. 18.). Peptide synthesis followed the same procedure described in Example V.
Rheology Measurements: The hydrogel samples were characterized for mechanical properties. Gelation was determined right after the peptide solution triggered using either metal ion (i.e., Ca++) or albumin proteins (i.e., BSA) using C-VOR 150 rheometer system at both room temperature and 37° C. following our previous procedure. The maximum gel strength after 24 hours was used as the gel strength. The hydrogel samples after 24 hours was used and loaded in the probe system, and examined at a single frequency (1 Hz) and steady shear strain (1%). For shear-thinning experiments, the samples were subjected to shear and then observe the strain of the storage (G′) and loss (G″) modulus as a function of time following our previous procedures.
Regular h9e peptide described in Example VI can be blended with ECM ligands and functional proteins. […]

Compound: CC[C@@]1(O)C(=O)OCc2c1cc1n(c2=O)Cc2cc3ccccc3nc2-1 [Camptothecin, reference compound]
- HeLa cell viability [1]: dose-dependent decrease in cell viability

Compound: FLIVIGSIIGPGVDPGGAD (Derivative of spider flagelliform silk protein and a trans-membrane segment of subunit IV in the dihydropyridine sensitive human muscle L-type calcium channel) [Sequence 4]
- hydrogel formation [2]: yielded a peptide hydrogel
- final gel strength after 30 minute gelation time sweep [2]: 496 Pa
- gel strength ([2]; triggered with BSA): about 150 Pa
- gel strength ([2]; triggered with calcium): about 550 Pa

Compound: FLIVIGSIIPGGGDGPGGD (Derivative of spider flagelliform silk protein and a trans-membrane segment of subunit IV in the dihydropyridine sensitive human muscle L-type calcium channel) [Sequence 3]
- hydrogel formation [2]: yielded a peptide hydrogel
- final gel strength after 30 minute gelation time sweep [2]: 196 Pa

Compound: FLIVI-GSII-GPGGDGPGGDGRGD (FLIVIGSIIGPGGDGPGGDGRGD; FLIVI-GSII N-terminal extension; Derivative of spider flagelliform silk protein and a trans-membrane segment of subunit IV in the dihydropyridine sensitive human muscle L-type calcium channel with built-in ECM ligand) [SEQ ID NO:69]
- Gel strength [3]: about 500 Pa

From patent US11135163B2, “Peptide hydrogel properties and its applications” (Kansas State University Research Foundation, priority 2014, dated 2021)
